The values that follow are results of earlier work, collected in publication PMC2920229.

This series concerns the target HIV-1 protease (Human immunodeficiency virus 1) (UniProt O93215).

As usually defined, the Kd is the equilibrium constant for the complex coming apart. With HIV-1 protease (from UniProt O93215), the Kd was below 5 nM.
